± gives the standard deviation.

This series is described as follows: protein stability index of a GFP-peptide fusion (GPS, HEK-293T) (PSI 1-6); higher = more stable. The following applies: c terminus: a fixed tail appended.
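Further: 24-mer peptide tiles fused after GFP, lentivirally expressed, FACS-sorted into six equal bins by GFP/DsRed ratio, decoded by Illumina sequencing, PSI is the read-weighted mean bin number.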

Sequence QFHCHKAVLASCSQYFRSLFSSHP [KLHL14] had a protein stability index (treatment: DMSO) of 2.95 ± 0.43 and a protein stability index (treatment: MLN4924 1 uM, 8 h) of 2.81 ± 0.4.

As to SPSRAPGLRQRASNKVQDSAPVET [HMOX1], the protein stability index (treatment: DMSO) stood at 5.01 ± 0.27 and the protein stability index (treatment: MLN4924 1 uM, 8 h) was 5.22 ± 0.2.

HDQCKCENLIMFQNLANEEVRKLT [MATN2]: the protein stability index (treatment: DMSO) amounted to 3.13 ± 0.25 and the protein stability index (treatment: MLN4924 1 uM, 8 h) was determined as 3.58 ± 0.28.

As for KMKFVIGNGKNLVDFTFVENVVHG [NSDHL], the protein stability index runs as follows: (treatment: DMSO) 2.24 ± 0.19; (treatment: MLN4924 1 uM, 8 h) 2.24 ± 0.47.

In the case of RYFSLSLMSGALAVNQKIDRESLC [PCDHGC5], the protein stability index reads like this: (treatment: DMSO) 2.03 ± 0.21; (treatment: MLN4924 1 uM, 8 h) 2.1 ± 0.28.

In turn, ERHKLKRQDADAWTLYKILDSCKQ [SMG5] returned a protein stability index (treatment: DMSO) of 2.75 ± 0.21 and a protein stability index (treatment: MLN4924 1 uM, 8 h) of 2.9 ± 0.36.

With SRAPCKVQGLEGIKMAMVACGDAF [NEK8], the protein stability index by setting is: (treatment: DMSO) 2.27 ± 0.38; (treatment: MLN4924 1 uM, 8 h) 2.25 ± 0.27.

As for SWVTDMCKVGASSDPCGQLRPTLL [PNLIPRP1], the protein stability index is 2.14 ± 0.38 (treatment: DMSO) and 2.34 ± 0.41 (treatment: MLN4924 1 uM, 8 h).

Turning to NSLEMTPAVRQRVIEEAKTAFLLN [HMOX1], the protein stability index worked out at 3.67 ± 0.2 (treatment: DMSO) and 3.63 ± 0.31 (treatment: MLN4924 1 uM, 8 h).

On to LFQLSCSSTQLNELLLFAVGFIMA [OR3A1], for which the protein stability index turned out to be 2.71 ± 0.45 (treatment: DMSO) and 2.98 ± 0.87 (treatment: MLN4924 1 uM, 8 h).

As for QHGFFRRTADEATNTGPAGSSAST [DYRK1B], the protein stability index by setting is: (treatment: DMSO) 5.02 ± 0.19; (treatment: MLN4924 1 uM, 8 h) 4.93 ± 0.16.

In the case of RIHSGKKPYACDECAKAFSRSAIL [ZNF396], the protein stability index runs as follows: (treatment: DMSO) 2.31 ± 0.4; (treatment: MLN4924 1 uM, 8 h) 2.38 ± 0.33.

The sequence ELVLVSAGFDAARGDPLGGCQVSP [HDAC6] registered a protein stability index (treatment: DMSO) of 2.89 ± 0.27 and a protein stability index (treatment: MLN4924 1 uM, 8 h) of 3.14 ± 0.35.

Regarding NARLQAMWGQSLLPPVSTSFTTGG [TNXB], the protein stability index is, setting by setting: (treatment: DMSO) 2.51 ± 0.29; (treatment: MLN4924 1 uM, 8 h) 2.89 ± 0.33.

Take RSSHSSDSGGSDVDLDPTDGKLFP [ELF3]: the protein stability index reads like this: (treatment: DMSO) 5.34 ± 0.17; (treatment: MLN4924 1 uM, 8 h) 5.26 ± 0.32.

In the case of SLDSLDGLSLTDESDSCVSFEAPL [PSD2], the protein stability index reads like this: (treatment: DMSO) 4.95 ± 0.2; (treatment: MLN4924 1 uM, 8 h) 4.86 ± 0.23.

Turning to DLLCKTSHLSDTGISALVEIPKNC [WDR41], the protein stability index is, setting by setting: (treatment: DMSO) 2.8 ± 0.23; (treatment: MLN4924 1 uM, 8 h) 2.78 ± 0.34.

For the sequence VSRGPGVNVGTTALWKHLKSMHRE [ZBED2], the protein stability index is, setting by setting: (treatment: DMSO) 3.22 ± 0.14; (treatment: MLN4924 1 uM, 8 h) 3.3 ± 0.32.

For the sequence KLPSSGSGKRLSGVSSVDSAFSSR [RIPK4], the protein stability index is, setting by setting: (treatment: DMSO) 3.9 ± 0.095; (treatment: MLN4924 1 uM, 8 h) 3.99 ± 0.4.

Take TASSSYGKGEGPIWLDNLHCTGNE [LOXL2]: the protein stability index by setting is: (treatment: DMSO) 3.91 ± 0.16; (treatment: MLN4924 1 uM, 8 h) 3.91 ± 0.25.

As for ESHEVPGTLSMGVPQIFKYGETCF [ZNF24], the protein stability index is 2.74 ± 0.39 (treatment: DMSO) and 2.89 ± 0.73 (treatment: MLN4924 1 uM, 8 h).

Regarding YQSYFKTIEELQQKILCAKAENAR [KRT34], the protein stability index is, setting by setting: (treatment: DMSO) 2.46 ± 0.33; (treatment: MLN4924 1 uM, 8 h) 2.86 ± 0.5.

With GMRRKSLLTRKVICKSDAPTGDVL [GOLPH3], the protein stability index came out at 3.51 ± 0.18 (treatment: DMSO) and 3.53 ± 0.52 (treatment: MLN4924 1 uM, 8 h).

For the sequence VISPMYQLHKPLAEGTPRSNHSAQ [IKZF1], the protein stability index reads like this: (treatment: DMSO) 3.76 ± 0.32; (treatment: MLN4924 1 uM, 8 h) 4.06 ± 0.31.

On to VPWESDIWDINNQICTVKDIKAEP [ATF6], for which the protein stability index runs as follows: (treatment: DMSO) 4.02 ± 0.24; (treatment: MLN4924 1 uM, 8 h) 3.9 ± 0.25.

On to ADLRLGGQPAPPQLLLGRLFRWPD [SMAD6], for which the protein stability index by setting is: (treatment: DMSO) 2.84 ± 0.13; (treatment: MLN4924 1 uM, 8 h) 2.83 ± 0.23.

With SIRLPLDAPLPGSKAKPKPPKQAQ [TBC1D10A], the protein stability index runs as follows: (treatment: DMSO) 4.36 ± 0.09; (treatment: MLN4924 1 uM, 8 h) 4.72 ± 0.11.

As to LLGALVLLGLGVLLFSGGLSESET [PBXIP1], the protein stability index came to 2.29 ± 0.77 (treatment: DMSO) and 2.47 ± 0.89 (treatment: MLN4924 1 uM, 8 h).

Regarding PHTPQTPGQGGPASTPAQTAAGGQ [NR2F2], the protein stability index came out at 5.3 ± 0.18 (treatment: DMSO) and 5.27 ± 0.23 (treatment: MLN4924 1 uM, 8 h).

For CYLELFPAHLYFQAHGSEGLTFQG [PLEKHN1], the protein stability index stood at 2.89 ± 0.53 (treatment: DMSO) and 2.31 ± 0.26 (treatment: MLN4924 1 uM, 8 h).

For ETRRRMEMAFNTRCKEENTIILQQ [NLN], the protein stability index was found to be 2.66 ± 0.36 (treatment: DMSO) and 2.98 ± 0.23 (treatment: MLN4924 1 uM, 8 h).

Take PGPDTGPDSELSPCIPPGFRNLVA [SPAG8]: the protein stability index amounted to 3.79 ± 0.27 (treatment: DMSO) and 3.94 ± 0.17 (treatment: MLN4924 1 uM, 8 h).

On to QRVEQLTRDLAGLRQFFKQLPSPP [CEBPD], for which the protein stability index came out at 2.71 ± 0.34 (treatment: DMSO) and 2.82 ± 0.29 (treatment: MLN4924 1 uM, 8 h).

Take PPAELKAEPGFEPADCKRKEEAGA [CEBPB]: the protein stability index amounted to 5.55 ± 0.23 (treatment: DMSO) and 5.68 ± 0.13 (treatment: MLN4924 1 uM, 8 h).

ANFIEKVRFLEQQNAALRGELSQA [PRPH]: the protein stability index by setting is: (treatment: DMSO) 3.39 ± 0.12; (treatment: MLN4924 1 uM, 8 h) 3.36 ± 0.39.

Regarding ERFIQYLASRNTLFNLSNFLDKSG [SNAP91], the protein stability index reads like this: (treatment: DMSO) 2.4 ± 0.26; (treatment: MLN4924 1 uM, 8 h) 2.53 ± 0.61.

The values above are taken from the supplement of paper PMC10567573.
